For one substance, Kd results are on record in US20220064326A1.

In the assay the target is recombinant EGFR-Fc (AcroBiosystems) (human) (UniProt P00533). The experiment in a line: BLI (Octet QK), biotinylated binder on streptavidin sensor, EGFR-Fc 0-100 nM, 1:1 global fit.

Take “AFF.EGFR (Z domain-based EGFR-binding affibody ZEGFR:1907) (designed binder)”: the Kd (usually a measure of binding affinity in units of concentration) stood at 3.2 nM.
